Target: PAR-5 (UniProt P41932)
Experiment: IP anti-GFP, blot anti-PAR-5
Conditions: reference: wild type ATGL-1::GFP; sites S303

Q: Which “binding against the reference” value does the source give for “ATGL-1 (from UniProt Q11186) ATGL-1(S303A)::GFP” here?
A: weaker

Reference: publication PMC4476745
